Data published in publication PMC7470980, “Mechanism of translation inhibition by type II GNAT toxin AtaT2” (Nucleic Acids Research, 2020).

Tests used:
SEC = biological target: the molecule itself; assay: SEC
[1] = biological target: the molecule itself; assay: SEC; […]; 10 mM Tris-HCl pH 8.0, 150 mM NaCl; 0.2 ml/min; […]

Protein	stoichiometry N (SEC)	stoichiometry N [1]
AtaT2 toxin (enzyme) MGITAPTPLTSEHNLADFCCSDHGMNEWLKKKALKNHSSGLSRVYVICIANTRQVIGYYCLSTGSIQRNLAPGAMRRNAPESLPVVVLGRLAIDQAWAGKGLGVALLKDAVYRTMSIAQQVGVRALIVHALDDSVRNFYLKYAFVPSPFQSLTLLYPITLE	2	–
AtaR2 antitoxin (natural protein) MKPESKEAPINIRAKASQRDLIDMAANLVAKSRTDFMLDAACREAQDILLDQRLFILDDEQYDAFLAALDAPITAERQAKINALMNRKSPWE	–	4
